Assay results taken from the nanobody polyreactivity screen of Harvey et al. (2022).

Experiment: yeast display, Sf9 membrane polyspecificity reagent, FACS + sequencing; frameworks hold sequencing errors
Outline: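 After 36–48 hours of galactose induction, yeast (Saccharomyces cerevisiae BJ5465) displaying a synthetic nanobody library were stained at 4 °C for 1 hour with 10% biotinylated, detergent-solubilized Sf9 membrane reagent. Streptavidin microbeads enriched the stained cells before FACS sorting into low and high (top ~1%) gates on anti-HA and streptavidin fluorescence. Each clone's polyreactivity label reflects its gate of origin.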

| Sequence | polyreactivity (PSR sort gate) |
| --- | --- |
| QVQLGESGGGLVQAGGSLRLSCAASGRTFPYNAMGWYRQAPGKERELVAAISSGGSTNYADSVKGRFTISRDNAKNTVYLQMNSLKQEDTAVYYCAVTGWPRYTWYSYGYWGQGTQVTLSS | low polyreactivity |
| QVQLGESGGGLVQAGGSLRLSCAASGSIFRYYAMGLYRQAPGKERELVAAISGSGGITRYADSVKGRFTISRDNAKNTVYLLMNSLKPEDTAVYYCATRPGTRPAYDYWGQGTQVTVSS | high polyreactivity |
| QVQLGESGGGLVQAGGSLRLSCAASGSIFSRYTMGWYREAPGKERELVAAITSSGGRTYYADSVKGRFTISRDNAKNTVYLQMNRLKAEDTAVYYCAARYFSSFPLYYYWGQGTQVTVSS | high polyreactivity |
| QVQLGESGGGLVQAGGSLRLSCAASGSIFWLYAMGWYRQAPGKERELVAAIDSGDSRKYADSVKGRFTISRDNAKNTVYLQMNSLTPEDTAVYYCNASRRYHVRAPYDYWGQGTLVTVSS | low polyreactivity |
| QVQLGESGGGLVQAGGSLRLSCAASGSILRTYTMGWYRPAPGKERELVAAISSSGGRTYYADSVKGRFTISRDNAKNTVYLQMNSLKPEDTAVYYCNAGGYRYRSYDYWGQGTQVTVSS | high polyreactivity |
| QVQLGESGGGLVQAGGSLRLSCAASGSSFWVNAMGWYRQAPGKETELVAAISRGSTYYADSVKGRFTISRDNAKNTVYLQRNSLKPEDTAVYYCNARYLYSHSRYARYHSWGQGTQVTVSS | high polyreactivity |
| QVQLGESGGGLVQAGGSLRLSCAASGSTFARYAMGWYRQAPGKERELVAVIRSGGSRNYADSVKGRFTISRDNAKNTVYLQMNSLKPEDTAGAADQWTIHRWATYGYWGQGTQVTVSS | low polyreactivity |
| QVQLGESGGGLVQAGGSLRLSCAASGSTFKLYAMGWYRQAPGKERELVAAIRGSGGRTYYADSVKGRFTISRDNAKNTVYLQMNSLKPEDTAVYYCAAAYIGVWKYDSWGQGTQVTVSS | high polyreactivity |
| QVQLGESGGGLVQAGGSLRLSCAASGSTFTSYAMGGSRQAPGKERELVAAITHRGSTNYADSVKGRFTISRDNAKYTVDLQMNSLKPEDTAVYYCNARYATSVLYDYWRQGTQVTVSS | high polyreactivity |
| QVQLGESGGGLVQAGGSLRLSCAASGSTFVDNTMGWYRQAPGKERELVAAITRSGGSTYYADSVKGRFTISRDNAKNTVYLQMNSLNPEDTAVYYCATYPYSPYFYVYVEPYVYWGQGTQVTVSS | low polyreactivity |
| QVQLGESGGGLVQAGGSLRLSCAASGSTFYRYAMGWYRQAPGKERELVAAITRGGGNTYYADSVKGRFTISRDNAKNTVYLQMNSLKPEDTAVYYCNTDPTLRSRVGIWGFDYWGQGTQVTVSS | high polyreactivity |
| QVQLGESGGGLVQAGGSLRLSCAASGYIFRVYAMGWYIQARGKERDFVAAITRGGRTNYADSVKGRFTISRDNAKNTVYLQMNSLKQEDTAVYYCAASFSAIRGGVRVTIDYYWGQGTQVTVSS | high polyreactivity |
| QVQLGESGGGLVQAGGSLRLSCDASGTSNPYNAMGWYRQAPGKERELVATISTNDGSTYYADSVKGRFTISRDNEKNTVYLQMNSLKPDDTAVYYCASRGFARYWGQRTQVTVSS | low polyreactivity |
| QVQLGESGGGLVQAGGTLRLSCAAYGFIFGIYDMGSYRQAPGKERELVAAITWDGDTTYYADSVKGRFTISRDNAKNTVYLQMNSLKPEDTAVFYCAVDDSRAYPRPYHWVEYYYWGQGTQVTVSS | low polyreactivity |
| QVQLGESWACIVQAGGSLRLSCAASGIISYLYAMGLYRHAPGKERELVAVIRTSDAITYYADSVKGRFTISRDTAKNTVYLQMNSLKPEDTAFYYCGGRPRYYLYGYDYWGQGTQVTVSS | high polyreactivity |
| QVQLGHSGGGLVQAGGSLRLTCAPSGSIFGYKAMGWYRQAPGKERELVAAISSTGGSTYYADSVKGRFTISRDNAKNTVYLQMNSLKPEDTAVYYCAKQVADRYVYWGQGTQVTVSS | low polyreactivity |
| QVQLHERGDGLVQAVGSLRLSCAASGYISGYYYMGWYRQATGKERELVAGIDALGSSTNYADCVKGRFTISRDNAKNTVYLQMNSLKPEDTAVYYCAARPDGDRLFSYWGQGTQVTVSS | low polyreactivity |
| QVQLHESGGGLVQAGGSLRLRCAASGTISYAGPMGWYRQAPGKEREFGAGIGVGSNTNYADSVKGRYTIIRDNAKNTVFLQMNSLKPEDTAVYYCAVGGYAPLGRPYWGQGTQVTVSS | low polyreactivity |
| QVQLHESGGGLVQAGGSLRLSCAASGTISQEDWMGWYRKAPRKEREFVAAIGLGSNTNYADSLKGRFTISRDNANNTVYLQMNSLKPEDTAVYYCAVSVWQYSDHVYRGQGTQVTVSS | low polyreactivity |
| QVQLHESGGGLVQAGGSLRLSCAASGTISYAGPMGWYRQAPGKEREFVAGIGVGSNTNYADSVKGRYTIIRDNAKNTVYLQMTSLKPEETAVYYCAVGGYAPLGPPYWGQGTQVTVSS | low polyreactivity |
| QVQLHESGGGLVQAGGSMRLSCEASGTISYAGTMGWYRQAPGKEREFVAGIGLGSNTNYADSVKGRYTIIRDNEKKSVYLQMNSLKPEDTSLYYFAVGVYDPLGRPYWCQGTQVTVSS | low polyreactivity |
| QVQLHESGRGLVQAGGSLRLSCAATATISYAGPMGWYRQAPGKEREFVAGIGVGSNTNYADSVKGRYTIIRDNAKNTVYLQMNSLKPEDTAVYSCAVGGYAPLGRPYWGQGTQVTVSS | low polyreactivity |

| Sequence | polyreactivity (PSR sort gate) |
| --- | --- |
| QVQLIESGGGLVQAGGSLRLSCAASGRTFKRYAMGWYRQAPGKERELVARITYSGARTYYADSVKGRFTISRDNAKNTVYLQMNSLKPEDTAVYYCAAQQYWTSQYFRSATFDYWGQGTQVTVSS | high polyreactivity |
| QVQLIESGGGLVQAGGSLRLSCAASGSIFAANAMGWYRQAPGKEREFVASISYTGASTYADSVKGRFTISRDNAKNTVYFQMNSLKPEDTAVYYCAKDGYWTGLDPYYYWGQGTQVTVSS | low polyreactivity |
| QVQLIESGGGLVQAGGSLRLSCAASGSIFYNNTMGWYRQAPGKERELVATIRTSGGSTYADSVKGRYTISRDNAKNTLYLQMNSLKPEDTAVYYCAVRRYRSSSYYYWGQGTQVTVSS | high polyreactivity |
| QVQLIESGGGLVQAGGSLRLSCAASGSTFYGNAMGWYRQAPGKEREFVAAITGSGDSTDYADSVKGRFTISRDNAKNTVYLQMNSLIPEDTAVYYCNAVGYTPSKPSKFDYWGQGTQVTVSS | low polyreactivity |
| QVQLKESGVGLVQAGGSLRLSCAASGTIYWLWSMGWYCQAPGKERELVASISSGGTTYHADSVKGRFTISRDNAKNTVYLQMNSLNPEDTAVYYSAAFYVATAKLGYWGQGSQVTVSS | low polyreactivity |
| QVQLLDSGGGLVKAGGILRLSCAASGRTFGRYAMGCYRQSPGKERELVATISSRGGNAYYAESVKGRFTISRDNAKNTVYFQMNSLKPEYTGVYYCEAQTYKCYDWRQGTQVTVSS | high polyreactivity |
| QVQLLESCGGLDQAGGSLRLSCAASGSTFGTNAMGWYRKAPGKERELVAAITSSGGSTNYADSVKWRFTISLDNANNSVYFQMNCLKPEDTAVYYCNDVSYSTTYGGDSWGQGTQVTVSS | low polyreactivity |
| QVQLLESCGGLVQAGGSLRLSCAASGGTFQRYAMGWYRQAPGKERELVAAISSGGRTYYADSVKGRFTISRDNAKNTVYLEMNSLKAEDNAVYYCNAVGWTQRGRMFEYWGQGTQVTVSS | high polyreactivity |
| QVQLLESGAGLVQAGGSLRLSCAASGYIFYTYAMGWYRQAPGKERELVAAISSNGGSTYYADSVKGRFTISRDHAKNTVYLQMNSLKPEDTAVYYCAARGPYTRYRLSMDYWGQGTQVTVSS | high polyreactivity |
| QVQLLESGGGFVQAGGSLRLSCAASGQTFHGNTMGWYRQAPGKERELVAAISFDGGNTYADSVKGRFTKSRDNAKTSVYLHMNSLKPEDSAVYYDYWGPGTQVTVSS | low polyreactivity |
| QVQLLESGGGIVQAGGSLRLSCAASGRTFSRYVMGWYRQAPGKERELVATISRSGGSTFYADSVKGRFTISRDNAKNTVYLQMNSLKPEDTAVYYCNKKVQGYQVTYGYWGQGTQVTVSS | high polyreactivity |
| QVQLLESGGGLDQARGSLRLSCAASGRTFYGYGMGWSRQAPGKEREFVAAISYSGGSTYYADSVKGRFTISRDNAKNTVYLQMNSLKPEDTAVYYSAARNRGSCYYYWGQGTQVTVSS | high polyreactivity |
| QVQLLESGGGLVQAGASLRLSCAASGSTFSYYAMGWYRQAPGKERELDAAISWRGSSTYYADSVKRRITISRDNANNTVYLQMNSLTPEATAVYYCAAGYPGRVSGYLYGTRATYYYWGQGTQVTVSS | high polyreactivity |
| QVQLLESGGGLVQAGGILRLRCAASGIIVRGYVMGWYRQAPGKESELVAAISTSGGRTSYADSVKGRFTISRDNAKNTVYLQMNSLKPEDTAVYYCAARPLYSYSQSGYGYWGQGTQVTVSS | high polyreactivity |
| QVQLLESGGGLVQAGGSDRLSCAASGSIFSFNAMGWYRQAPGKERELVAAISRGGSTYYADSVKGRFTISRDNAKNTVYLQLNSLKPEDTAVYYCAADIYGHSYSYYLGEYWGQGTQVTVSS | high polyreactivity |
| QVQLLESGGGLVQAGGSIRLSFADSAFIFTSYSIGRYRQAPGKEREFVAAISWTGGTYYADSVKGRFTISRDNAKNTVYFLINSLKPEDTAVYYCAVRYKRKGSGYRYYLYVYWGQGTQVTVSS | high polyreactivity |
| QVQLLESGGGLVQAGGSLRISCAASGSTLRTNAMGWYRQAPGKERELVAAISTRGSSTYYADSVKGRFTISRDNSKNTVYLQMNSLKPEDTAVYYCAKDGVWYYSGTGMDYWGQGTQVTVSS | low polyreactivity |
| QVQLLESGGGLVQAGGSLRLCCASSGYIFWGANMGWYRQAPGKEREFVAAIGHGTVTCYADSVKGRFTISRDNAKNTVYLQMNSLKPEDTAVYNCAAYSDVRKPHRYWGQGTQVTVVS | high polyreactivity |
| QVQLLESGGGLVQAGGSLRLICAASGSTFVVYAMGWYRQAPGKERELVAAIRSGGGTYYADSVKGRFTISRDNAKNTVYLQMNSQKPEDTAVYYCNADSDPGPAYVYRDLYDYWGQGTQVTLSS | low polyreactivity |
| QVQLLESGGGLVQAGGSLRLSCAASGFIFYHYAMGWYIQAPGKERELVAANSRSGTSTYYADSVKGRFTISRDNAKNTVYLQMNSLKPEDTAVYYCNAVYTRYVYYYYEYDYWGQGTQVTVSS | high polyreactivity |
| QVQLLESGGGLVQAGGSLRLSCAASGFTFAWYAMGWYRQAPGKERELVAAISSRGSRTRYADSVKGRFTISRDNAKNTVYLQLNSLKPEDTAFYYCAKGSGARVVQVDRSGDYWGQGTQVTVSS | high polyreactivity |
